Experimental data published in the nanobody polyreactivity screen of Harvey et al. (2022).

Experiment: yeast display, Sf9 membrane polyspecificity reagent, FACS + sequencing; frameworks hold sequencing errors
In short: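 A synthetic nanobody library was expressed on Saccharomyces cerevisiae BJ5465 by galactose induction for 36–48 hours. The library was stained for 1 hour at 4 °C with 10% biotinylated, detergent-solubilized Sf9 membrane reagent and enriched with streptavidin microbeads before FACS. Low and high (top ~1%) gates were set on anti-HA fluorescence for expression and streptavidin fluorescence for reagent binding, and each polyreactivity label reflects the gate of origin.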
In the case of “QVQLVESGGGIVQAGGSLRLSCAASGRTTSVYAIGWYRQAPGKERELVAAINRSDGGTYYADSVKGRFTISRDNAKNTVYLQMNRLQPEDTAVYYCNAVVLYGWYGRRYSSRLDYWGQGTQVTVSS”, the “polyreactivity (PSR sort gate)” value is reported as “high polyreactivity”. With “QVQLVESGGGIVQAGGSLRLSCAASGSIFGPYAMGWYRQAPGKERELVAAITWTGGRTYYADSVKGRFTISRDNAKNTVYLQMNSLKPEDTAVYYCAADYSPSTWYLYYTLYYYWGQGTQVTVSS” the “polyreactivity (PSR sort gate)” value was “low polyreactivity”. In the case of “QVQLVESGGGIVQAGGSLRLSCAASGSIFHGYAMGWYRQAPGKERELVASITWNGGSTYYADSVKGRFTISRDNAKNTVYLQMNSLKPEDTAVYYCATSKWRGRGRTYDYWGQGTQVTVSS”, the “polyreactivity (PSR sort gate)” value is reported as “high polyreactivity”. In the case of “QVQLVESGGGIVQAGGSLRLSCAASGSIFITYAMGWYRPAPGKERELVAAIRDSGDRTYYADSVKGRFTISRDNAKNTVYLQMNSLKPEDTAVYYCAARIWTGRGRKLGYGYVYWGQGTQVTVSS”, the “polyreactivity (PSR sort gate)” value is reported as “low polyreactivity”. For “QVQLVESGGGIVQAGGSLRLSCAASGSIFLGYTMGLYRQAPGKERELVAAINSSGGSTYYADSVKGRFTISRDNAKNTVYLQMNSLKPEDTAVYYCADANSILLFDSWGQGTQVTVSS”, the “polyreactivity (PSR sort gate)” value was “low polyreactivity”. With “QVQLVESGGGIVQAGGSLRLSCAASGSIYGYAMGWYRQAPGKERELVAAISGRGGRTYYADSVKGRFTISRDNAKNTVYLQMNSLKPEDTAVYYCNVQWRYPYHYTVDYWGQGTQVTVSS” the “polyreactivity (PSR sort gate)” value was “high polyreactivity”. For “QVQLVESGGGIVQAGGSLRLSCAASGSNFTAYDMGWYRPAPGKDRELVAALNVSAGTTYYADSVKGRFTISRDHAKNTVYLQMNSLKPEDTAVYYCATYRSPTPYTRENIYAYWGQGTLVTVSS”, the “polyreactivity (PSR sort gate)” value was “low polyreactivity”. For “QVQLVESGGGIVQAGGSLRLSCAASGSNFYANPMGWYRQAPGKERELVAAITRSGAGTYYADSVKGRFTISRDNAKNTVYLQMNSLKPEDTAVYDCAKRTKTPTGYDWGGYDYWGQGTQVTVSS”, the “polyreactivity (PSR sort gate)” value was “high polyreactivity”. For “QVQLVESGGGIVQAGGSLRLSCAASGSTFDSYAMGWYGQAPGKERELVATISWTGSSTYYADSVKGRFTISRDNAKNTVYLQMNSLKPEDTAVYYCATDQYYEYDYWGQGTQVTVSS”, the “polyreactivity (PSR sort gate)” value was “low polyreactivity”. For “QVQLVESGGGIVQAGGSLRLSCAASGSTFDSYAMGWYRQAPGKERELVATISWTGSSTYYADSVKGRFTISRDNAKNTVYLQMNSLKPADTAVYYCATDQYYEYDYWGQGTQVTVSS”, the “polyreactivity (PSR sort gate)” value was “low polyreactivity”. In the case of “QVQLVESGGGIVQAGGSLRLSCAASGSTFEANAMGWYRQARGKERELVAAISSGDRTNYADSVKGRFTISRDNAKNTVYLQLNSLKPEDNAVYFCAAPTDSYYEFDYWGQGTQGTVSS”, the “polyreactivity (PSR sort gate)” value is reported as “low polyreactivity”. With “QVQLVESGGGIVQAGGSLRLSCAASGSTFGTYAMGWYRQAPGKEMELVAAISNSGGSTYYADSVKGRFTISRDNAKNTVYLLMNSLKQEDTAVYYCNTDGLVRNGPFYSWGQGTQVTVSS” the “polyreactivity (PSR sort gate)” value was “low polyreactivity”. With “QVQLVESGGGIVQAGGSLRLSCAASGSTFPHNAMGWYRQAPGKERQLVAALSVGGGSTHYADSVKGRFTISRDNAKNTVYLQMNSLKPEDTAVYYCAKDYAYQYSFVTYDYWGQGTQVTVSS” the “polyreactivity (PSR sort gate)” value was “low polyreactivity”. With “QVQLVESGGGIVQAGGSLRLSCAASGSTFTWYAMGLYRQAPGKERELVADISYGGGSTYYADSVKGRFTISRDNSKNTVYLQMNSLKPEDTAVYYCTALGAKGYVKGFDYWGQGTQVTVSS” the “polyreactivity (PSR sort gate)” value was “low polyreactivity”. In the case of “QVQLVESGGGIVQAGGSLRLSCAASGSTLVKYAMGWYRQAPGKERELVAAISWSGGRTYYADSVKGRFTISRDNAKNTVYLQMNSLKPEDTAVYYCAARRKAVRYDYWGQGTQVTVSS”, the “polyreactivity (PSR sort gate)” value is reported as “high polyreactivity”. With “QVQLVESGGGIVQAGGSLRLSCAASGSTSGSYGMGWYRQAPGKERELVAAIRWSGGRTYYADSVKGRFTISRDKAKNTVYLQMNSLKPEDTAVYFCAKFRYTVSGYNYWGQRTQVTVSS” the “polyreactivity (PSR sort gate)” value was “high polyreactivity”.
